According to US20060009379A1 (GOVERNMENT OF THE UNITED STATES OF AMERICAN AS REPRESENTED …, published 2006):

B1: HA-tagged nucleostemin mutant dG4 (deletion of the G4 GTP-binding motif, codons 177-180) (other)
chain: MKRPKLKKASKRMTCHKRYKIQKKVREHHRKLRKEAKKRGHKKPKKDPGVPNSAPFKEALLREAELRKQQLEELKQQQKLDRQKEQERKRKLEISPDDEQSNVETQEESDEPKIKKAKSGKQNPKKLHCQELKKVIEASDIVLEVLDARDPLGCRCPQVEEAVIQSGCKKLVLVLNVPKENLENWLTYLNKELPTVVFKASTNLKNRKKTFKIKKKVVPFQSKLCCGKEALWKLLGGFQQSCGKGVQVGVVGFPNVGKSSIINSLKQERICSVGVSMGLTRSMQIVPLDKQITIIDSPCFIISPCNSPAALALRSPASIEVLRPLEAASAILSQADSQQVVLKYTVPGYKDSLDFFTKLAQRRGLHQKGGSPNVESAAKLLWSEWTGASLGYYCHPPASWNHSPHFNENITAIMKRGFNLEELEKNNAHSIQVLKGPHLTNKILFRSSGLTNGILEEKDIPEESPKQTEDQQDGDDQEHVTGEKNAEISDVTPVEETREMSPGQSTASKPSDRSFILDKMSEEDDAYDFTTDYI
notes: not shown: HA (hemagglutinin) tag
B2: HA-tagged nucleostemin mutant dB (deletion of the basic domain, codons 2-46) (other)
chain: MDPGVPNSAPFKEALLREAELRKQQLEELKQQQKLDRQKEQERKRKLEISPDDEQSNVETQEESDEPKIKKAKSGKQNPKKLHCQELKKVIEASDIVLEVLDARDPLGCRCPQVEEAVIQSGCKKLVLVLNKSDLVPKENLENWLTYLNKELPTVVFKASTNLKNRKKTFKIKKKVVPFQSKLCCGKEALWKLLGGFQQSCGKGVQVGVVGFPNVGKSSIINSLKQERICSVGVSMGLTRSMQIVPLDKQITIIDSPCFIISPCNSPAALALRSPASIEVLRPLEAASAILSQADSQQVVLKYTVPGYKDSLDFFTKLAQRRGLHQKGGSPNVESAAKLLWSEWTGASLGYYCHPPASWNHSPHFNENITAIMKRGFNLEELEKNNAHSIQVLKGPHLTNKILFRSSGLTNGILEEKDIPEESPKQTEDQQDGDDQEHVTGEKNAEISDVTPVEETREMSPGQSTASKPSDRSFILDKMSEEDDAYDFTTDYI
notes: as for B1
B3: HA-tagged nucleostemin mutant dCC (deletion of the coiled-coil domain, codons 61-87) (other)
chain: MKRPKLKKASKRMTCHKRYKIQKKVREHHRKLRKEAKKRGHKKPKKDPGVPNSAPFKEALRKRKLEISPDDEQSNVETQEESDEPKIKKAKSGKQNPKKLHCQELKKVIEASDIVLEVLDARDPLGCRCPQVEEAVIQSGCKKLVLVLNKSDLVPKENLENWLTYLNKELPTVVFKASTNLKNRKKTFKIKKKVVPFQSKLCCGKEALWKLLGGFQQSCGKGVQVGVVGFPNVGKSSIINSLKQERICSVGVSMGLTRSMQIVPLDKQITIIDSPCFIISPCNSPAALALRSPASIEVLRPLEAASAILSQADSQQVVLKYTVPGYKDSLDFFTKLAQRRGLHQKGGSPNVESAAKLLWSEWTGASLGYYCHPPASWNHSPHFNENITAIMKRGFNLEELEKNNAHSIQVLKGPHLTNKILFRSSGLTNGILEEKDIPEESPKQTEDQQDGDDQEHVTGEKNAEISDVTPVEETREMSPGQSTASKPSDRSFILDKMSEEDDAYDFTTDYI
notes: as for B1
B4: HA-tagged nucleostemin mutant dA (deletion of the acidic domain, codons 460-503) (other)
chain: MKRPKLKKASKRMTCHKRYKIQKKVREHHRKLRKEAKKRGHKKPKKDPGVPNSAPFKEALLREAELRKQQLEELKQQQKLDRQKEQERKRKLEISPDDEQSNVETQEESDEPKIKKAKSGKQNPKKLHCQELKKVIEASDIVLEVLDARDPLGCRCPQVEEAVIQSGCKKLVLVLNKSDLVPKENLENWLTYLNKELPTVVFKASTNLKNRKKTFKIKKKVVPFQSKLCCGKEALWKLLGGFQQSCGKGVQVGVVGFPNVGKSSIINSLKQERICSVGVSMGLTRSMQIVPLDKQITIIDSPCFIISPCNSPAALALRSPASIEVLRPLEAASAILSQADSQQVVLKYTVPGYKDSLDFFTKLAQRRGLHQKGGSPNVESAAKLLWSEWTGASLGYYCHPPASWNHSPHFNENITAIMKRGFNLEELEKNNAHSIQVLKGPHLTNKILFRSSGLTNGILMSPGQSTASKPSDRSFILDKMSEEDDAYDFTTDYI
notes: as for B1

Biological target: T1, GST-p53 fusion protein (UniProt P04637 1-393)
T1 construct: not shown: glutathione S-transferase (GST) fusion partner
Experiment: GST-p53 pull-down of HA-tagged protein from H1299 lysate, α-HA Western blot
Procedure: FIG. 6F is a digital image of mapping of p53-interacting region in nucleostemin by GST pull-down assay. […] The retained proteins (bound) were detected by α-HA Western blot and expressed as ratios to the input.
To map the interacting region between nucleostemin and p53, HA-tagged mutant proteins were expressed in H1299 cells and incubated with agarose-bound GST-p53 fusion protein in GST pull-down experiments. The amount of mutant proteins retained by GST-p53 fusion was measured by Western blot and presented as the ratio to the input proteins.

T1 sequence (P04637 whole entry, the tested form may be a part): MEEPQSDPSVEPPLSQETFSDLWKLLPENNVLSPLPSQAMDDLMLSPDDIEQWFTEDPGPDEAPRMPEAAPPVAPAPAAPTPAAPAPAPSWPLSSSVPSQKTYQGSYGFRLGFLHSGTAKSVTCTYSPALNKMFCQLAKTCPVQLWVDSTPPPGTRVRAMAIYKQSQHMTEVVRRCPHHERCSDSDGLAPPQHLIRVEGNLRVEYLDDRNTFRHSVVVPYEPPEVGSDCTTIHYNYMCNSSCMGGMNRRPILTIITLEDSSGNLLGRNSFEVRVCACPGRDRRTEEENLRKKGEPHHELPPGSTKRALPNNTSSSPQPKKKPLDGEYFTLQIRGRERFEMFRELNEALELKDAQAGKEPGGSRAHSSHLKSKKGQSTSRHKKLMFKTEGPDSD

| Binder | fold reduction of the amount bound, against wild-type nucleostemin [fold] | other results |
| --- | --- | --- |
| B1 |  | fold increase of the amount bound, against wild-type nucleostemin: 1.5 fold |
| B2 |  | binding of nucleostemin to p53 (retained protein, ratio to input): 17% |
| B3 | 1.5 |  |
| B4 | 1.5 |  |
